From article PMC4330345 (Nucleic Acids Research, 2015)
Numbering of substitutions follows the chain as printed.

B1: HlyU of V. cholerae, wild type (natural protein)
chain: MPYLKGAPMNLQEMEKNSAKAVVLLKAMANERRLQILCMLLDNELSVGELSSRLELSQSALSQHLAWLRRDGLVNTRKEAQTVFYTLSSTEVKAMIELLHRLYCQANQ
notes: not shown: His6, N-terminal, cleaved
B2: HlyU_Vc E49A (natural protein)
chain: B1 chain with E49A
notes: source: E. coli BL21 (DE3), purified (Ni-NTA); not shown: His6, N-terminal, cleaved
B3: HlyU_Vc N30A (natural protein)
chain: B1 chain with N30A
notes: as for B2
B4: HlyU_Vc Q63A (natural protein)
chain: B1 chain with Q63A
notes: as for B2
B5: HlyU_Vc S62A (natural protein)
chain: B1 chain with S62A
notes: as for B2
B6: HlyU_Vc H64A (natural protein)
chain: B1 chain with H64A
notes: as for B2
B7: HlyU_Vc R33A (natural protein)
chain: B1 chain with R33A
notes: as for B2
B8: HlyU_Vc Y85A (natural protein)
chain: B1 chain with Y85A
notes: as for B2
B9: HlyU_Vc A66S (natural protein)
chain: B1 chain with A66S
notes: as for B2
B10: HlyU_Vc K78A (natural protein)
chain: B1 chain with K78A
notes: as for B2
B11: HlyU_Vc K26A (natural protein)
chain: B1 chain with K26A
notes: as for B2
B12: HlyU_Vc L65A (natural protein)
chain: B1 chain with L65A
notes: as for B2
B13: HlyU_Vc R69A (natural protein)
chain: B1 chain with R69A
notes: as for B2
B14: HlyU_Vc R70A (natural protein)
chain: B1 chain with R70A
notes: as for B2
B15: HlyU_Vc W67A (natural protein)
chain: B1 chain with W67A
notes: as for B2
B16: HlyU_Vc R32A (natural protein)
chain: B1 chain with R32A
notes: as for B2
B17: HlyU_Vc Q81A (natural protein)
chain: B1 chain with Q81A
notes: as for B2
B18: HlyU_Vc L98D (natural protein)
chain: B1 chain with L98D
notes: as for B2
B19: HlyU_Vc T90A (natural protein)
chain: B1 chain with T90A
notes: as for B2
B20: O3 (dsDNA)
DNA 1: TTGGGGGGGGGGGGGGGACTAAATTAGTTCAAATT
DNA 2: AATTTGAACTAATTTAGTCCCCCCCCCCCCCCCAA
B21: O2 (dsDNA)
DNA 1: ATTAATCTTTAAATCAACTTTATAAATTAATTCAG
DNA 2: CTGAATTAATTTATAAAGTTGATTTAAAGATTAAT
B22: O1 (dsDNA)
DNA 1: TTTATAAATTAATTCAGACTAAATTAGTTCAAATT
DNA 2: AATTTGAACTAATTTAGTCTGAATTAATTTATAAA

Molecular target: the molecule itself
Experiment: SEC
Conditions: not given

Question: With B1 as the binder, how does the “stoichiometry N” value read?
Answer: Its value is 2.

Molecular target: the molecule itself
Experiment: SEC; analytical gel filtration (AKTA prime Plus); 500 ug protein injected; 50 mM sodium phosphate, 200 mM sodium chloride, pH 6.8; molecular weight from marker proteins; self-association, dimer against monomer
Conditions: not given

Question: Does B2 bind?
Answer: Result: binds

Question: Does B3 bind?
Answer: Result: binds

Question: Does B4 bind?
Answer: Result: binds

Question: Does B5 bind?
Answer: Result: binds

Question: Does B6 bind?
Answer: Result: binds

Question: Does B7 bind?
Answer: Result: binds

Question: Does B8 bind?
Answer: Result: binds

Question: Does B9 bind?
Answer: Result: binds

Question: Does B10 bind?
Answer: Result: binds

Question: Does B11 bind?
Answer: Result: binds

Question: Does B12 bind?
Answer: Result: binds

Question: Does B13 bind?
Answer: Result: binds

Question: Does B14 bind?
Answer: Result: binds

Question: Does B15 bind?
Answer: Result: binds

Question: Does B16 bind?
Answer: Result: binds

Question: Does B17 bind?
Answer: Result: binds

Question: Does B18 bind?
Answer: Result: binds

Question: Does B19 bind?
Answer: Result: binds

molecular target: T1, HlyU_Vc wild type (Vibrio cholerae, UniProt P52695 1-108); experiment: EMSA; EMSA: 1 nM probe, 1 mM Tris, 6 mM NaCl, 0.5 mM MgCl2, 0.01 mM EDTA, 0.1 mM CaCl2, 0.2% glycerol, 0.03 mg/ml salmon sperm DNA, 1 h, 4 C, pH not stated; footprint: ~10 nM DNA, 1 h, 4 C; conditions: protein: recombinant; tags: N-terminal 6xHis removed with thrombin; chain copies: 2; label: radiolabel; blunt
T1 sequence: B1 chain

Question: Does B20 bind?
Answer: Result: no binding

Question: Does B21 bind?
Answer: Result: no binding

Question: Does B22 bind?
Answer: Result: binds
